Assay results taken from publication PMC7902612, “A synergetic effect of BARD1 mutations on tumorigenesis” (Nature Communications, 2021).

Target: T1, GST-BRCA1-N (N-terminal of BRCA1, 1-147 aa) (human, UniProt P38398 1-147)
T1 construct: BRCA1, human, N-terminal residues 1-147; Cloned into pGEX-4T-1, which as far as I know puts GST at the N-terminus; also called recombinant BRCA1-N
Experiment: MST; RED-NHS-labelled GST-BARD1-N or GST-BARD1^P24S-N at constant concentration (10-50 nM), twofold serial dilutions of GST-BRCA1-N; 50 mM Tris-HCl pH 7.4, 150 mM NaCl, 10 mM MgCl2, 0.05% Tween 20; 15 min at room temperature; Monolith NT.115, 20% and 40% MST power
Details: both partners purified

T1 sequence (P38398 1-147): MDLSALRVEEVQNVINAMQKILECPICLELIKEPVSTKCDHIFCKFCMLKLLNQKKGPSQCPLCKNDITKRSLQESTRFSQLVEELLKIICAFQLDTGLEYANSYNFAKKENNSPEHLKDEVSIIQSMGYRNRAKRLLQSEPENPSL

- Kd: 890 nM
B1: GST-BARD1-N (N-terminal of BARD1, 1-142 aa) (domain or fragment, human, UniProt Q99728 1-142, looked up)
chain: MPDNRQPRNRQPRIRSGNEPRSAPAMEPDGRGAWAHSRAALDRLEKLLRCSRCTNILREPVCLGGCEHIFCSNCVSDCIGTGCPVCYTPAWIQDLKINRQLDSMIQLCSKLRNLLHDNELSDLKEDKPRKSLFNDAGNKKNS
modifications: fluorescent label from the RED-NHS protein labeling kit (NanoTemper)
notes: BRCA1-associated RING-domain protein 1 (BARD1), human, N-terminal residues 1-142; Cloned into pGEX-4T-1, which as far as I know puts GST at the N-terminus
